Assay results taken from US9907791B2, “Ron inhibitors for use in preventing and treating bone loss” (UNIVERSITY OF UTAH RESEARCH FOUNDATION, priority 2014, dated 2018).

Columns and labels:
[1] = tested on: MSP-overexpressing MDA-MB-231 cells; assay: Intratibial MSP-overexpressing MDA-MB-231 tumor-induced osteolysis; assay type: in vivo, NOD.SCID mice; conditions: treated 3 days post tumor cell injection, sacrificed 30 days
From the text: (§1) All procedures involving mice and experimental protocols were approved by the Institutional Animal Care and Use Committee (IACUC) of the University of Utah. The RonTK−/− mice which reside on the FVB background, were crossed with NOD.SCID mice for an immune-compromised mouse model. As a control, wild-type FVB mice were also crossed with NOD.SCID mice. The STK−/− mice, which are on a C57BL/6 background, were compared to wild-type C57BL/6 mice as controls. Mice for all experiments were 6 to 8 weeks of age. For intratibial injections, 1×10^5 (PyMTor DU4475) or 3×10^5 (MDA-MB-231) tumor cells were resuspended in 10 μL matrigel and injected into the right tibia of anesthetized female FVB (PyMT) or NOD.SCID mice carrying various alleles of RON. Osteolysis was assessed by X-ray radiography. Dissected hindlimbs from mice sacrificed at the final time point in each experiment were placed in the Kodak In-vivo Multispectral Imaging System FX and exposed to X-ray radiography at 35 kV for 100 sec. Excess tumor tissue was removed from the bones prior to X-ray. Osteolytic lesions were quantified using Image J software (NCBI). All images were compared to the contralateral leg as an internal control.
(§2) For in vivo experiments, the OSI-296 inhibitor was dissolved in 40% Trappsol with 0.01 M HCl, and mice were treated at a concentration of 200 mg/kg daily by oral gavage. […]

c-Src = assay: Western blot of osteoclast lysates, phospho-Src; assay type: cell-based, mice
Description: Cells were serum starved (0.5% FBS) for 3 hours prior to lysate collection. Inhibitors were added 1 hour prior to lysis and MSP was added 15 min prior to lysis when indicated. Cells were washed with 1×PBS and harvested in lysis buffer (25 mM Tris-HCl, pH 7.5, 0.42 M NaCl, 1.5 mM MgCl2, 0.5 mM EDTA, 1 mM DTT, 25% sucrose, and 0.1% Triton X-100) plus 100× protease arrest (Bioscience, Bozeman, Mont.) and 100× orthovanadate. Primary antibodies used for immunoblotting include: anti-MSP (Santa Cruz, sc-6090, Dallas, Tex.) at a 1:250 dilution, anti-pan Akt (Cell Signaling, #4691S, Beverly, Mass.) at a 1:1000 dilution, anti-pan Erk (Cell Signaling, #4695, Beverly, Mass.) at a 1:1000 dilution, anti-phospho Akt (Cell Signaling, #9271 L, Beverly, Mass.) at a 1:500 dilution, anti-phospho Erk (Cell Signaling, #4370S, Beverly, Mass.) at a 1:500 dilution, anti-Src (Cell Signaling, #2110, Beverly, Mass.) at a 1:500 dilution, and anti-phospho Src (Y416) (Cell Signaling, #2113, Beverly, Mass.) at a 1:500 dilution. The secondary antibodies used were HRP-conjugated anti-goat IgG (Santa Cruz, Dallas, Tex.) and anti-rabbit IgG (Santa Cruz, Dallas, Tex.). Chemiluminescent signals were detected using Immun-Star HRP (BioRad, Hercules, Calif.).

PyMT control tumor cells = assay: Intratibial PyMT control tumor-induced osteolysis; assay type: in vivo, mice
From the text: as §1, §2

[2] = tested on: MDA-MB-231 control tumor cells; assay: Intratibial MDA-MB-231 control tumor-induced osteolysis; assay type: in vivo, NOD.SCID mice; conditions: treated 3 days post tumor cell injection, sacrificed 30 days
From the text: as §1, §2

B1: muRANK-Fc: murine RANKL antagonist (Amgen) (protein)
chain: VTPPCTQERHYEHLGRCCSRCEPGKYLSSKCTPTSDSVCLPCGPDEYLDTWNEEDKCLLHKVCDAGKALVAVDPGNHTAPRRCACTAGYHWNSDCECCRRNTECAPGFGAQHPLQLNKDTVCTPCLLGFFSDVFSSTDKCKPWTNCTLLGKLEAHQGTTESDVVCSSSMTLRRPPKEAQAYLPS
modifications: left off: a dimerising Fc or GST
osteolysis from MSP-expressing MDA-MB-231 tumor cells [1]: did not significantly reduce | phosphorylated c-Src in WT osteoclasts (c-Src): decrease in phosphorylated c-Src | osteolysis from PyMT control tumors (no MSP) (PyMT control tumor cells; WT mice, treatment began 3 days post injection, sacrificed 42 days post injection): significantly impaired | tumor growth of PyMT control bone lesions (PyMT control tumor cells; caliper measurements): no significant effect on tumor growth | osteolysis from control MDA-MB-231 tumor cells [2]: reduced osteolysis
